Laboratory results taken from paper PMC7538601, “Low-Zone IL-2 Signaling: Fusion Proteins Containing Linked CD25 and IL-2 Domains Sustain Tolerogenic Vaccination in vivo and Promote Dominance of FOXP3^+ Tregs in vitro” (Frontiers in Immunology, 2020).

B1: IL2-CD25 fusion protein (other, mouse)
chain: APTSSSTSSSTAEAQQQQQQQQQQQQHLEQLLMDLQELLSRMENYRNLKLPRMLTFKFYLPKQATELKDLQCLEDELGPLRHVLDLTQSKSFQLEDAENFISNIRVTVVKLKGSDNTFECQFDDESATVVDFLRRWIAFCQSIISTSPQGGGGSTRGGGGSTGGGGSGGGGSELCLYDPPEVPNATFKALSYKNGTILNCECKRGFRRLKELVYMRCLGNSWSSNCQCTSNSHDKSRKQVTAQLEHQKEQQTTTDMQKPTQSMHQENLTGHCREPPPWKHEDSKRIYHFVEGQSVHYECIPGYKALQRGPAISICKMKCGKTGWTQPQLTCVDEREHHRFLASEESQGSRNSSPESETSCPITTTDFPQPTETTAMTETFVLTMEYK
notes: signal peptide in the construct; murine IL-2, aa1-169 of NP_032392; 23-aa flexible linker; murine soluble CD25 (IL-2 receptor alpha chain), aa22-236 of NP_032393; Glycosylated; about 70 kDa on SDS-PAGE, reducing and non-reducing; By SEC it runs as higher order multimers; also called IL2-CD25 FP; FP; source: HEK293F, stably transfected (pIRES AcGFP1), expression supernatant, purified (Ni-NTA); not …
B2: CD25-IL2 fusion protein (other, mouse)
chain: ELCLYDPPEVPNATFKALSYKNGTILNCECKRGFRRLKELVYMRCLGNSWSSNCQCTSNSHDKSRKQVTAQLEHQKEQQTTTDMQKPTQSMHQENLTGHCREPPPWKHEDSKRIYHFVEGQSVHYECIPGYKALQRGPAISICKMKCGKTGWTQPQLTCVDEREHHRFLASEESQGSRNSSPESETSCPITTTDFPQPTETTAMTETFVLTMEYKGGGGSTRGGGGSTGGGGSGGGGSSAPTSSSTSSSTAEAQQQQQQQQQQQQHLEQLLMDLQELLSRMENYRNLKLPRMLTFKFYLPKQATELKDLQCLEDELGPLRHVLDLTQSKSFQLEDAENFISNIRVTVVKLKGSDNTFECQFDDESATVVDFLRRWIAFCQSIISTSPQ
notes: signal peptide in the construct; murine soluble CD25 (IL-2 receptor alpha chain), aa1-236 of NP_032393; 23-aa flexible linker; murine IL-2, aa20-169 of NP_032392; Glycosylated; about 70 kDa on SDS-PAGE, reducing and non-reducing; By SEC it runs as higher order multimers; also called CD25-IL2 FP; FP; source: HEK293F, stably transfected (pCMV), expression supernatant, purified (Ni-NTA); not shown: …

What was measured:
[1] = target: the molecule itself; experiment: SEC; Superdex 200 Increase 10/300 GL, 0.5 ml/min, 10 mM HEPES pH 7.3, 140 mM NaCl; 500 ul sample at 0.5 mg/ml; apparent molecular weights against Bio-Rad gel filtration standard
[2] = target: T1, Full length murine CD25 on HEK cells (mouse, UniProt P01590 22-268); experiment: cell-based or functional assay
T1 sequence (looked up): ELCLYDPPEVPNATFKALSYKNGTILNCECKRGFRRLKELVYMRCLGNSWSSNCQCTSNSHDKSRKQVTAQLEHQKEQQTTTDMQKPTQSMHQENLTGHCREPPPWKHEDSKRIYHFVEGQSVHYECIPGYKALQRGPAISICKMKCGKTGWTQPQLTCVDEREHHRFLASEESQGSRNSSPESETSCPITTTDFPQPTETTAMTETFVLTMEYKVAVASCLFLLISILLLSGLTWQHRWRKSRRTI

Row | Binder | binding result [1] | proliferation ([3H]thymidine) of the IL-2 dependent mouse T cell line SJL-PLP.1; potency against mouse IL-2 [2]
1 | B1 | binds | ~320 fold less potent than IL-2
2 | B2 | binds | ~32 fold less potent than IL-2
